Assay [1] concerns the target T1, hErbB3.mmh (soluble monomeric human ErbB3 extracellular domain with C-terminal myc-myc-hexahistidine tag) (human, UniProt P21860 20-642). In words: SPR (Biacore), 25 C, mAb capture format. On the procedure: (§1) (Tables 2-4). Measurements were conducted on a Biacore 2000 or T100 instrument. […] Kinetic association (kₐ) and dissociation (kd) rate constants were determined by processing and fitting the data to a 1:1 binding model using Scrubber 2.0 curve fitting software.

Assay [2] has as its target T2, hErbB3.hFc (soluble dimeric human ErbB3 extracellular domain fused to human Fc) (human).
T2 construct: called dimeric
In words: SPR (Biacore), 25 C, mAb capture format. On the procedure:
as §1
(In SPR one partner is held on a chip, and binding of the other changes the refractive index at the surface.)

The target of assay [3] is T2, hErbB3.hFc (soluble dimeric human ErbB3 …). In words: blocking ELISA: antibody + 50 pM ErbB3-hFc on neuregulin1b-coated plate. From the text: To further characterize anti-hErbB3 mAbs of the present invention, their ability to block ligand binding was examined via ELISA. […] Plates were washed and non-sequestered (plate bound) ErbB3 was detected with an anti-Fc poly conjugated with horseradish peroxidase (HRP). Plates were developed with TMB (3,3′,5,5′-tetramethylbenzidine) and neutralized with sulfuric acid before reading absorbance at 450 nm on a Victor X5 plate reader. Data analysis used a sigmoidal dose-response model within Prism™ software. […] Maximal blocking for each antibody was calculated by taking the difference in absorbance from zero to 50 nM antibody on the inhibition curve, divided by the difference in absorbance from 50 pM to zero ErbB3 on the dose curve.
A general note: An ELISA detects its analyte on a solid surface through an enzyme-linked reagent.

Assay [4] addresses T3, hErbB3.mFc (soluble dimeric human ErbB3 extracellular domain fused to mouse Fc) (human).
T3 construct: called dimeric
T3 chain: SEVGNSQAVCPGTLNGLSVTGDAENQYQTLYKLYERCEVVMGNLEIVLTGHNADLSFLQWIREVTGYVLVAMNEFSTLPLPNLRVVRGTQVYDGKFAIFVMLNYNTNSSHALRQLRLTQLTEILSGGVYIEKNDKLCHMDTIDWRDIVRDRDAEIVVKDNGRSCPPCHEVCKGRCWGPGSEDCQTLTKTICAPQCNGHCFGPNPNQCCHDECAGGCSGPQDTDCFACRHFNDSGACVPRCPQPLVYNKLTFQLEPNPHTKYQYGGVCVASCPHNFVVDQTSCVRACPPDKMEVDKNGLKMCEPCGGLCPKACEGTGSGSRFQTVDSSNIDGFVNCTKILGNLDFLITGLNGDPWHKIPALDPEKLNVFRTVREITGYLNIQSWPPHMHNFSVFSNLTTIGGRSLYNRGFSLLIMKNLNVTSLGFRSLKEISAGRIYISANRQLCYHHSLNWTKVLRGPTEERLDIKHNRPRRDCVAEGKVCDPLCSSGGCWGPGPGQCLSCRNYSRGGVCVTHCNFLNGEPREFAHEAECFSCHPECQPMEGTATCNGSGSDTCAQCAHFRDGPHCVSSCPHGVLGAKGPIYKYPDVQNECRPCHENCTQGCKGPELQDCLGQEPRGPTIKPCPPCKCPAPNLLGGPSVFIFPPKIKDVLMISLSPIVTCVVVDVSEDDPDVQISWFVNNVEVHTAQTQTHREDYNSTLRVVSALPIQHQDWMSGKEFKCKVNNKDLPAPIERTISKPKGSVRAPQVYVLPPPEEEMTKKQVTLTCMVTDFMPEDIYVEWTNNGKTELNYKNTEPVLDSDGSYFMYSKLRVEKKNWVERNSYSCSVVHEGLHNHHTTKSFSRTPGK
In words: SPR (Biacore), 25 C, mAb capture format. On the procedure: as §1

The target in assay [5] is T1, hErbB3.mmh (soluble monomeric human …). The assay can be described thus: SPR (Biacore), 37 C, mAb capture format. On the procedure: as §1
The target of assay [6] is T3, hErbB3.mFc (soluble dimeric human ErbB3 …). The assay can be described thus: SPR (Biacore), 37 C, mAb capture format. On the procedure:
as §1

This note sets out measurements from patent publication US20140072563A1 (Regeneron, published 2014).

T2 sequence (chain, as listed by the source limits assumed): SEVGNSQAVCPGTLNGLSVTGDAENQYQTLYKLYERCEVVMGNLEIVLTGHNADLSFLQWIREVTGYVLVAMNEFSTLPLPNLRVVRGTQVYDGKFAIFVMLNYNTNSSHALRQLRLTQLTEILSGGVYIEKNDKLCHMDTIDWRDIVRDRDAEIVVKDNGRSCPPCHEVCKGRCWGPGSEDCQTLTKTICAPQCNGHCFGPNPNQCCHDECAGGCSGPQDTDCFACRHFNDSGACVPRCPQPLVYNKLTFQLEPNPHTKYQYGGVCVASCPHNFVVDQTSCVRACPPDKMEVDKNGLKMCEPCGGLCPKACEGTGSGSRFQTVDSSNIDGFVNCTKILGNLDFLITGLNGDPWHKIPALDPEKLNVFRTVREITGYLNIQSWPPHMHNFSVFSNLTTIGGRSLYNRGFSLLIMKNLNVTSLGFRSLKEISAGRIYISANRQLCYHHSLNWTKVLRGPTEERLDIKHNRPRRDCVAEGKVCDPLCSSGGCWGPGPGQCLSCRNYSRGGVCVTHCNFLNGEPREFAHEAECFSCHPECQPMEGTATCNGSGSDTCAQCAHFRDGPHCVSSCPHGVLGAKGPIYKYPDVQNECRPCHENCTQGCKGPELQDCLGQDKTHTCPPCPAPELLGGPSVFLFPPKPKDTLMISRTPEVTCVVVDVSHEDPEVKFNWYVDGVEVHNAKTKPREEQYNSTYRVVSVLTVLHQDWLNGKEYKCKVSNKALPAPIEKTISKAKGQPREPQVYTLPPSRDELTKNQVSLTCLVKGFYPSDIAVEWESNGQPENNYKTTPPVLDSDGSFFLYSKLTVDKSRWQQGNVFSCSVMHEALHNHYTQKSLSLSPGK

B1: H2M1930N (antibody, V domains shown)
VH: EVQLVESGGGLVKPGGSLRLSCVASGFTFSSYNMNWVRQAPGKGLEWVSFISGSSNYIHYADSVKGRFTISRDNAKNALYLQMNSLRAEDTAVYYCARDDGDYDWFDPWGQGTLVTVSS
VL: EIVLTQSPGTLSLSPGERATLSCRASQSVSSSYLAWYQQKPGQAPRLLIYGTSSRATGIPDRFSGSGSGTDFTLTISRLEPEDFAVYYCQQYDNSYTFGQGTKLEIK
notes: Hybridoma chimeric antibody: human variable domains, mouse IgG2 Fc (H2M prefix)
As to B1, in assay [1], the dissociation constant (Kd) (as a rule, the equilibrium constant for the complex coming apart) worked out at 0.559 nM; the T½ turned out to be 106 min; the koff (usually the rate constant with which the complex falls apart) stood at 0.000109 s⁻¹; the kon (as a rule, a measure of how fast the partners come together) turned out to be 196000 M⁻¹ s⁻¹. In assay [2], the dissociation constant Kd worked out at 0.0205 nM, the T½ came to 1400 min, the off-rate (koff) is 8.27e-06 s⁻¹ and the kon is 404000 M⁻¹ s⁻¹. In assay [3], the IC50 – broadly, the point on the concentration scale where inhibition reaches its midpoint – worked out at 0.0222 nM and the “Maximal Blocking (%)” value was determined as 87%.

B2: H2M1934N (antibody, V domains shown)
VH: EVQLVQSGGGLVKPGGSLRLSCAASGFTFSNFNMNWVRQAPGKGLEWVSFISSLSTYTYYADSVKGRFTISRDNAKNSLYLQMNSLRAEDTAVYYCARDDGDHDWFDPWGQGTLVTVSS
VL: EIVLTQSPDTLSLSPGERATLSCRASQSVSSNYLAWYQQKPGQAPRLLIYSASNRATGIPDRFSGSGSGTDFTLTISRLEPEDFAVYYCQQYDSSYTFGQGTKLEIK
notes: as for B1
Consider B2, for which, in assay [1], binding was put at a Kd of 0.438 nM, the T½ was found to be 157 min, the koff was determined as 7.35e-05 s⁻¹ and the association rate constant (kon) amounted to 168000 M⁻¹ s⁻¹. For the same molecule, in assay [2], binding was put at a Kd of 0.0222 nM, the T½ is 1450 min, the koff worked out at 7.97e-06 s⁻¹ and the on-rate constant (kon) stood at 359000 M⁻¹ s⁻¹. In assay [3], the IC50 worked out at 0.0261 nM and the “Maximal Blocking (%)” value was 80%.

B3: H4H1819N (antibody, V domains shown)
VH: EVQLVESGGGVVRPGGSLRLSCAASGFTFDDYAMHWVRQAPGKGLEWVAGISWNSGSIDYADSVKGRFTISRDNAKNSLYLQMNSLRAGDTALYYCAKDILDLDYYGLDVWGQGTTVTVSS
VL: DIQMTQSPSSLSASVGDRVTITCRASQDISSYLAWYQQKPGKVPNLLIYDASSLQSGVPSRFSGSGSGTDFTLTLSSLQPEDFASYYCQNYNSAPYTFGQGTKLEIK
notes: Human IgG4 Fc (H4H prefix); same variable domains as H1M1819N
On to B3, for which the dissociation constant (Kd) in assay [1] came out at 0.0435 nM; in assay [4], 0.943 pM; in assay [5] it was 0.129 nM; in assay [6] it was 1.53 pM. Further, the T½ in assay [1] was 33 min; in assay [4] it was 748 min; in assay [5], 7 min; in assay [6] it was 206 min. Also, the koff in assay [1] was 0.000351 s⁻¹; in assay [4], 1.54e-05 s⁻¹; in assay [5] it was 0.00156 s⁻¹; in assay [6] it was 5.62e-05 s⁻¹. In addition, the on-rate constant (kon) in assay [1] was 8.1e+06 M⁻¹ s⁻¹; in assay [4] it was 1.64e+07 M⁻¹ s⁻¹; in assay [5], 1.21e+07 M⁻¹ s⁻¹; in assay [6] it was 3.68e+07 M⁻¹ s⁻¹.

B4: H2M1936N (antibody, V domains shown)
VH: EMQLVESGGGLVQPDRSLRLSCAASGFNFDNYAIHWVRQAPGKGLEWVSGISWNSGNIGYADSVKGRFTISRDNAKNSLFLLMNSLRPDDSALYYCTRGYNWNALSPMDVWGQGTTVTVSS
VL: DIQMTQSPSSLSASVGDRVTVTCRASQGISNYLAWYQQKPGKVPKLLIYAASTLQSGVPSRFSGSGSGTDFTLTISSLQPEDVASYYCQNYNSAPMTFGQGTKVEIK
notes: as for B1
In assay [1], B4 came in with a dissociation constant Kd of 6.59 nM, a T½ of 41 min, a koff of 0.000285 s⁻¹ and an association rate constant (kon) of 43200 M⁻¹ s⁻¹. In assay [2], this molecule gave a dissociation constant Kd of 1.09 nM, a T½ of 166 min, a koff of 6.97e-05 s⁻¹ and a kon of 64100 M⁻¹ s⁻¹. For the same molecule, in assay [3], the IC50 was 0.527 nM and the “Maximal Blocking (%)” value worked out at 91%.

B5: H2M1938N (antibody, V domains shown)
VH: EVQLVESGGGVVRPGGSLRLSCAASGFTFDDYGMSWVRQVPGKGLEWVSGLNWNGGITGYTDSVKGRFTISRDNAKNSLYLQMNSLRAEDTAFYHCARDSGDQDAFDIWGQGTMVTVSS
VL: QIVMTQSPATLSVSPGERATLSCRASQSITPYLAWYQQKPGQTPRLLIYGVSTRATGIPARFSGSGSGTEFTLTISSLQSEDFAVYYCQQYDNWYTFGQGTKLEIK
notes: as for B1
In assay [1], B5 displayed a dissociation constant Kd of 0.599 nM, a T½ of 80 min, an off-rate constant (koff) of 0.000144 s⁻¹ and a kon of 241000 M⁻¹ s⁻¹. Further, in assay [2], the Kd is 0.0301 nM, the T½ was 851 min, the koff turned out to be 1.36e-05 s⁻¹ and the kon was 451000 M⁻¹ s⁻¹. In addition, in assay [3], the IC50 is 0.0249 nM and the “Maximal Blocking (%)” value was determined as 85%.

B6: H2M1937N (antibody, V domains shown)
VH: QVQLQQWDAGLLKPSETLSLTCAVYGGSFSSYYWSWIRQPPGKGLEWIGEINHRGSTNYNPSLKSRVTISVDTSKNQFSLKLRSVTAADTAVYYCARGGVAARPDWHFFDYWGQGTLVTVSS
VL: DIQMTQSPSSLSASVGDRVTITCRASQVIRNDLGWFQQRPGKAPKRLIYAASSLQSEVPSRFSGSGSGTEFTLTITSLQPEDFATYYCLQHNSYPLTFGQGTRLEIK
notes: as for B1
In assay [1], B6 yielded a Kd of 0.682 nM, a T½ of 205 min, a dissociation rate constant (koff) of 5.63e-05 s⁻¹ and an association rate constant (kon) of 82600 M⁻¹ s⁻¹. In assay [2], this molecule came in with a dissociation constant (Kd) of 0.116 nM, a T½ of 908 min, an off-rate (koff) of 1.27e-05 s⁻¹ and a kon of 110000 M⁻¹ s⁻¹. Further, in assay [3], the IC50 turned out to be 0.044 nM and the “Maximal Blocking (%)” value is 95%.

B7: H4H1821N (antibody, V domains shown)
VH: EVQLVESGGGLVQPGRSLRLSCAASGFTFDDYAMHWVRQAPGKGLEWVSSISWNSGSIGYADSVKGRFTISRDNAKNSLYLQMNSLKPEDTALYYCTKDTDYGDYLDAFDIWGQGTMVAVAS
VL: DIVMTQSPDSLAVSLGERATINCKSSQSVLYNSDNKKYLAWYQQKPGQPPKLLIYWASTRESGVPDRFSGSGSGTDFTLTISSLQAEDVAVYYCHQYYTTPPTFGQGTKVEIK
notes: Human IgG4 Fc (H4H prefix); same variable domains as H2M1821N
In assay [1], B7 gave a dissociation constant (Kd) of 0.051 nM, a T½ of 60 min, an off-rate (koff) of 0.000192 s⁻¹ and a kon of 3.8e+06 M⁻¹ s⁻¹. For the same molecule, in assay [4], binding was put at a Kd of 0.355 pM, the T½ amounted to 2660 min, the koff amounted to 4.33e-06 s⁻¹ and the kon turned out to be 1.22e+07 M⁻¹ s⁻¹. In assay [5], this molecule displayed a Kd of 0.167 nM, a T½ of 11 min, a koff of 0.00108 s⁻¹ and a kon of 6.49e+06 M⁻¹ s⁻¹. In assay [6], this molecule came in with a Kd of 1.89 pM, a T½ of 326 min, a koff of 3.55e-05 s⁻¹ and an association rate constant (kon) of 1.87e+07 M⁻¹ s⁻¹.

B8: H1M1940N (antibody, V domains shown)
VH: QVQVVESGGGVVQPGRSLRLSCAASGFTFSDYGMHWVRQAPGKGLEWVAIISYDGSNKYYADSVKGRFTVSRDNSKNTLYLQLDSLRPEDAAVFYCAREGAFNLDYYAMDVWGQGTTVTVSS
VL: AIQMTQSPSSLSASVGDRVTITCRASQDIRNDLGWYQQKPGKAPNLLIYAASSLQSGVPSRFSGSGSGTDFTLTISSLQPEDFATYYCLQDSNYPLTFGGGTKVEIK
notes: Hybridoma chimeric antibody: human variable domains, mouse constant domains (H1M prefix, mouse Fc)
In assay [1], B8 gave a Kd of 0.477 nM, a T½ of 84 min, a dissociation rate constant (koff) of 0.000138 s⁻¹ and an on-rate (kon) of 289000 M⁻¹ s⁻¹. Besides, in assay [2], binding was characterised by a dissociation constant (Kd) of 0.0529 nM, the T½ was 475 min, the off-rate constant (koff) worked out at 2.43e-05 s⁻¹ and the kon turned out to be 460000 M⁻¹ s⁻¹. Further, in assay [3], the IC50 came out at 0.53 nM and the “Maximal Blocking (%)” value was found to be 80%.

B9: H1M1828N (antibody, V domains shown)
VH: EVQLVESGGGLVQPGRSLRLSCAASGFTFDDYAMYWVRQAPGKGLEWVSGISWNSGSIGYADSVKGRFTISRDNAKNSLYLQMDSLRAEDTALYYCARDMMEVDLYGMDVWGQGTTVTVSS
VL: DIQMTQSPSSVSASVGDRVTITCRASQDISSWLAWYQQKPGTAPKFLIYETSSLQSGVPSRFSGSGSGTDFILTISSLQPEDFATYYCQQTDSFPHTFGQGTKLEIR
notes: as for B8
As for B9, in assay [1], binding was put at a Kd of 0.515 nM, the T½ was found to be 44 min, the koff amounted to 0.000265 s⁻¹ and the kon turned out to be 513000 M⁻¹ s⁻¹. In assay [2], this molecule yielded an equilibrium dissociation constant (Kd) of 0.0279 nM, a T½ of 266 min, an off-rate constant (koff) of 4.34e-05 s⁻¹ and an association rate constant (kon) of 1.56e+06 M⁻¹ s⁻¹. In assay [3], the half-maximal inhibitory concentration (IC50) was 0.03 nM and the “Maximal Blocking (%)” value came out at 95%.
